Measurements published in patent US20220064216A1 (ANBITION S R L, published 2022).
Square brackets hold non-standard residues; d marks the D form. Ends that are not written are not given here. * marks the point of attachment. Met(O2) = CS(=O)(=O)CC[C@H](N)C(=O)O; Cha = N[C@@H](CC1CCCCC1)C(=O)O; Bn = c1ccc(C*)cc1

What was measured:
[1] = biological target: T1, human recombinant receptor VEGFR-1, the form consisting of the seven extracellular domains of the receptor fused to the Fc domain of human IgG (R&D Systems, cat No. 321-FL) (human), P17948; assay: competition ELISA, VEGFR-1-Fc coated, PlGF as competing ligand
T1 chain: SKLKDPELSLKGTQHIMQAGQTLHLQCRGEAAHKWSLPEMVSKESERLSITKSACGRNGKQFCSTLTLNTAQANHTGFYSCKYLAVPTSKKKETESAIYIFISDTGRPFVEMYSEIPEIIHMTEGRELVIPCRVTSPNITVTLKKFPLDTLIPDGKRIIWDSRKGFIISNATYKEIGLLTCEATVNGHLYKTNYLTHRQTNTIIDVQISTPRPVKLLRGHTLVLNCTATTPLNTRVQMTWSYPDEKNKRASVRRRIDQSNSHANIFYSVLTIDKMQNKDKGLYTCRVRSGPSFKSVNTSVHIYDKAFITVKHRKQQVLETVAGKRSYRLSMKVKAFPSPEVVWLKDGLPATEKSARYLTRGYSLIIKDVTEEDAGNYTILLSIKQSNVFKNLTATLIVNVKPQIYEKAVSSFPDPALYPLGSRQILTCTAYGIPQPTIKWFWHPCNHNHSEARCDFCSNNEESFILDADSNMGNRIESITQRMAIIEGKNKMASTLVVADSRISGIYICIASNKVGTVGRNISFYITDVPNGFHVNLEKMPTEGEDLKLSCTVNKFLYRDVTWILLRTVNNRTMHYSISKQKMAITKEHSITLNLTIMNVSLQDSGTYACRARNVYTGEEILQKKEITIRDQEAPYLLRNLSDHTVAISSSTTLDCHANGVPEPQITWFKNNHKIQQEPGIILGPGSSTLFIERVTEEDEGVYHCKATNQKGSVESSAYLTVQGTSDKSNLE

[2] = biological target: T1, human recombinant receptor VEGFR-1, the …; assay: competition ELISA, VEGFR-1-Fc coated, VEGF-A as competing ligand
[3] = biological target: T1, human recombinant receptor VEGFR-1, the …; assay: competition ELISA, VEGFR-1-Fc coated, PlGF 5 ng/ml as competing ligand, peptide at 780 nM
[4] = biological target: T1, human recombinant receptor VEGFR-1, the …; assay: competition ELISA, VEGFR-1-Fc coated, PlGF or VEGF-A as competing ligand; reference iVR1
[5] = biological target: T1, human recombinant receptor VEGFR-1, the …; assay: competition ELISA, VEGFR-1-Fc coated, PlGF 5 ng/ml as competing ligand, peptide at 1560 nM
[6] = biological target: T1, human recombinant receptor VEGFR-1, the …; assay: competition ELISA, VEGFR-1-Fc coated, PlGF 5 ng/ml as competing ligand, peptide at 3125 nM
[7] = biological target: T1, human recombinant receptor VEGFR-1, the …; assay: competition ELISA, VEGFR-1-Fc coated, PlGF 5 ng/ml as competing ligand, peptide at 6250 nM
[8] = biological target: T1, human recombinant receptor VEGFR-1, the …; assay: competition ELISA, VEGFR-1-Fc coated, PlGF 5 ng/ml as competing ligand, peptide at 12500 nM
[9] = biological target: T1, human recombinant receptor VEGFR-1, the …; assay: competition ELISA, VEGFR-1-Fc coated, PlGF 5 ng/ml as competing ligand, peptide at 25000 nM
[10] = biological target: T1, human recombinant receptor VEGFR-1, the …; assay: competition ELISA, VEGFR-1-Fc coated, PlGF 5 ng/ml as competing ligand, peptide at 50000 nM
[11] = biological target: T1, human recombinant receptor VEGFR-1, the …; assay: competition ELISA, VEGFR-1-Fc coated, VEGF-A 5 ng/ml as competing ligand, peptide at 780 nM
[12] = biological target: T1, human recombinant receptor VEGFR-1, the …; assay: competition ELISA, VEGFR-1-Fc coated, VEGF-A 5 ng/ml as competing ligand, peptide at 1560 nM
[13] = biological target: T1, human recombinant receptor VEGFR-1, the …; assay: competition ELISA, VEGFR-1-Fc coated, VEGF-A 5 ng/ml as competing ligand, peptide at 3125 nM
[14] = biological target: T1, human recombinant receptor VEGFR-1, the …; assay: competition ELISA, VEGFR-1-Fc coated, VEGF-A 5 ng/ml as competing ligand, peptide at 6250 nM
[15] = biological target: T1, human recombinant receptor VEGFR-1, the …; assay: competition ELISA, VEGFR-1-Fc coated, VEGF-A 5 ng/ml as competing ligand, peptide at 12500 nM
[16] = biological target: T1, human recombinant receptor VEGFR-1, the …; assay: competition ELISA, VEGFR-1-Fc coated, VEGF-A 5 ng/ml as competing ligand, peptide at 25000 nM
[17] = biological target: T1, human recombinant receptor VEGFR-1, the …; assay: competition ELISA, VEGFR-1-Fc coated, VEGF-A 5 ng/ml as competing ligand, peptide at 50000 nM
[18] = biological target: T2, human recombinant receptor VEGFR-1, the form consisting of the seven extracellular domains of the receptor … (human, UniProt P17948 27-758); assay: competition ELISA, VEGFR-1-Fc coated, VEGF-A as competing ligand
T2 construct: Bought reagent; also called Flt-1; not shown: Fc domain of human IgG
Protocol: The human recombinant receptor VEGFR-1, in particular the form consisting of the seven extracellular domains of the receptor fused to the Fc domain of human IgG (R&D Systems, cat No. 321-FL), was made to adhere in the wells of 96-well microplates at a concentration of 0.5 μg/ml in PBS pH 7.5 (100 μl/well) for 16 hours at room temperature (RT).
The binding reaction was conducted for one hour at 37° C., followed by one hour at room temperature.

B1: iVR1-Cys, tetrameric peptide of formula (IIb): [H-(R-Glu)-(S-Cys(Bzl))-(S-Cha)]4-Lys2-Lys-(D-Cys)-NH2 (peptide)
peptide: H-[dE]-Cys(Bn)-[Cha]
chain 1: Lys
chain 2: Lys-[dC]-NH2
modifications: also: branched tetramer: four arms on alpha and epsilon amines of two Lys, each bonded to an amine of the Lys of chain 3
- IC50 [1]: < 1000 nM
- IC50 [2]: 1000 nM
- binding % (residual PlGF binding to VEGFR-1) [3]: 83.8%
- inhibitory capacity, fold against iVR1 [4]: 10 fold
- binding % (residual PlGF binding to VEGFR-1) [5]: 35.5%
- binding % (residual PlGF binding to VEGFR-1) [6]: 25.5%
- binding % (residual PlGF binding to VEGFR-1) [7]: 14.1%
- binding % (residual PlGF binding to VEGFR-1) [8]: 12.6%
- binding % (residual PlGF binding to VEGFR-1) [9]: 10.3%
- binding % (residual PlGF binding to VEGFR-1) [10]: 9.18%
- binding % (residual VEGF-A binding to VEGFR-1) [11]: 92.3%
- binding % (residual VEGF-A binding to VEGFR-1) [12]: 43.7%
- binding % (residual VEGF-A binding to VEGFR-1) [13]: 21.7%
- binding % (residual VEGF-A binding to VEGFR-1) [14]: 12.5%
- binding % (residual VEGF-A binding to VEGFR-1) [15]: 9.81%
- binding % (residual VEGF-A binding to VEGFR-1) [16]: 7.99%
- binding % (residual VEGF-A binding to VEGFR-1) [17]: 6.5%

B2: iVR1, tetrameric peptide of formula (IIc): [H-(R-Glu)-(S-Cys(Bzl))-(S-Cha)]4-Lys2-Lys-Gly-NH2 (peptide)
peptide: H-[dE]-Cys(Bn)-[Cha]
chain 1: Lys
chain 2: Lys-Gly-NH2
modifications: also: branched tetramer: four arms on alpha and epsilon amines of two Lys, each bonded to an amine of the Lys of chain 3
- IC50 [1]: 10000 nM
- IC50 [2]: 10000 nM
- binding % (residual PlGF binding to VEGFR-1) [3]: 99.4%
- binding % (residual PlGF binding to VEGFR-1) [5]: 101%
- binding % (residual PlGF binding to VEGFR-1) [6]: 96.1%
- binding % (residual PlGF binding to VEGFR-1) [7]: 68.5%
- binding % (residual PlGF binding to VEGFR-1) [8]: 44.6%
- binding % (residual PlGF binding to VEGFR-1) [9]: 36%
- binding % (residual PlGF binding to VEGFR-1) [10]: 26.3%
- binding % (residual VEGF-A binding to VEGFR-1) [11]: 98.4%
- binding % (residual VEGF-A binding to VEGFR-1) [12]: 96.2%
- binding % (residual VEGF-A binding to VEGFR-1) [13]: 93.9%
- binding % (residual VEGF-A binding to VEGFR-1) [14]: 66%
- binding % (residual VEGF-A binding to VEGFR-1) [15]: 37%
- binding % (residual VEGF-A binding to VEGFR-1) [16]: 21.4%
- binding % (residual VEGF-A binding to VEGFR-1) [17]: 8.6%

B3: tetrameric peptide having formula (II) with Y2 = D-serine (peptide)
peptide: [dE]-Cys(Bn)-[Cha]
chain 1: Lys
chain 2: Lys-[dS]-NH2
modifications: also: branched tetramer: four arms on both amines of two Lys, each bonded to an amine of the Lys of chain 3
notes: Described only as a tetrameric peptide of formula (II) with Y2 different from D-cysteine
- IC50 [18]: 2430 nM

B4: tetrameric peptide having formula (II) with Y2 = L-cysteine (peptide)
peptide: [dE]-Cys(Bn)-[Cha]
chain 1: Lys
chain 2: Lys-Cys-NH2
modifications: also: branched tetramer: four arms on both amines of two Lys, each bonded to an amine of the Lys of chain 3
notes: as for B3
- IC50 [18]: 2030 nM

B5: tetrameric peptide having formula (II) with Y2 = L-methionine sulfone (peptide)
peptide: [dE]-Cys(Bn)-[Cha]
chain 1: Lys
chain 2: Lys-[Met(O2)]-NH2
modifications: also: branched tetramer: four arms on both amines of two Lys, each bonded to an amine of the Lys of chain 3
notes: as for B3
- IC50 [18]: 4620 nM
